# In the DeepSol protein solubility set:
# Test: soluble on expression in E. coli; label from the status in PepcDB or PDB records
row,Sequence,soluble on expression in E. coli
1,MQITTVNVNGIRAAVKQRSDANRGMLPWLEQCGSDVVLLQEVRASEKDSLTALAPALDAGWHYVGAPAAAKGRAGVGILSRQPLRDVQVGLEGFVDSGRYIQATLSDPDTGHDVVVASLYLPSGSADTDKQDEKYRFLDVFGPFLEQAAQDNPHMVVGGDWNICHRMQDLKNWKTNRKKSGFLPDERAFMDSVFGVFPDSESQVSDAGQWAGAVDYTSQQRRTPANDPKWFDVARRLAPEDAAYTWWTYRGQAFDTNAGWRIDYQAATSAMLERATRCWVDKAAAYDLRWSDHSPLTVVYS,soluble
2,MQKFILSAFVVALVAADCALKCPDGYFSFKRAPSAKNSMTGLWCVKAILSDTLISPNQAKQVCEKDGSILTSFENLDERTKLATVLRDFLSAKKLDRGGMIVDGHRLKNCETDDRTVLNAEPCRNSSTGFTTDEKHTDNTFMWKSWADTEPGQSIFEKQIESCLQLAISQFKSRTELINDVFCNYVKHPQNEGAYDLWNYGAVCGRLPEWN,not soluble
3,MQKIKSLMTRQGLKSPQESLSDLGAIESLRVPGKEEFRELREQPSDPQAEQELINSIEQVYFSVDSFDIVKYELEKLPPVLNLQELEAYRDKLKQQQAAVSKKVADLILEKQPAYVKELERVTSLQTGLQLAAVICTNGRRHLNIAKEGFTQASLGLLANQRKRQLLIGLLKSLRTIKTLQRTDVRLSEMLEEEDYPGAIQLCLECQKAASTFKHYSCISELNSKLQDTLEQIEEQLDVALSKICKNFDINHYTKVQQAYRLLGKTQTAMDQLHMHFTQAIHNTVFQVVLGYVELCAGNTDTKFQKLQYKDLCTVCSDLITIHISLL,soluble
4,MQKKRFSKKYEVHYYEINSMQEATLLSLLNYMEDCAISHSTSAGYGVNELLAADAGWVLYRWLIKIDRLPKLGETITVQTWASSFERFYGNREFIVLDGRDNPIVKASSVWIYFNIKKRKPMRIPLEMGDAYGIDETRALEEPFTDFDFDFEPKVIEEFTVKRSDIDTNSHVNNKKYVDWIMETVPQQIYDNYKVTSLQIIYKKESSLGSGIKAGCVIDEQNTDNPRLLHKIWDKNTGLELVSAETIWQKIQS,soluble
5,MQKRVTDEEIKERLGKIKSRIAVMSGKGGVGKSTVTALLAVHYARQGKKVGILDADFLGPSIPILFGLRNARIAVSAEGLEPVLTQKYGIKVMSMQFLLPKENTPVIWRGPLIAGMIREFLGRVAWGELDHLLIDLPPGTGDAPLTVMQDAKPTGVVVVSTPQELTAVIVEKAINMAEETNTSVLGLVENMSYFVCPNCGHKSYIFGEGKGESLAKKYNIGFFTSIPIEEELIKLADSGRIEEYEKDWFESAPFLEHHHHHH,soluble
6,MQKVESIIIGGGPCGLSAAIEQKRKGIDTLIIEKGNVVESIYNYPTHQTFFSSSDKLSIGDVPFIVEESKPRRNQALVYYREVVKHHQLKVNAFEEVLTVKKMNNKFTITTTKDVYECRFLTIATGYYGQHNTLEVEGADLPKVFHYFKEAHPYFDQDVVIIGGKNSAIDAALELEKAGANVTVLYRGGDYSPSIKPWILPNFTALVNHEKIDMEFNANVTQITEDTVTYEVNGESKTIHNDYVFAMIGYHPDYEFLKSVGIQINTNEFGTAPMYNKETYETNIENCYIAGVIAAGNDANTIFIENGKFHGGIIAQNMLAKKQTPLES,soluble
7,MQLILLLVSLLMLIATFIEARDSDIDKKSLRTERLGFCPRYETWRKCGNGCEKSCTHPRQPPFSQCKLPCIPYSCRCNPGFYRDNQGTGRCVRLRRCKKW,not soluble
8,MQLKGKTAIVTGSSRGLGKAIAWKLGNMGANIVLNGSPASTSLDATAEEFKAAGINVVVAKGDVKNPEDVENMVKTAMDAFGRIDILVNNAGITRDTLMLKMSEKDWDDVLNTNLKSAYLCTKAVSKIMLKQKSGKIINITSIAGIIGNAGQANYAASKAGLIGFTKSIAKEFAAKGIYCNAVAPGIIKTDMTDVLPDKVKEMYLNNIPLKRFGTPEEVANVVGFLASDDSNYITGQVINIDGGLVM,soluble
9,MQLSKFFQKPQLLFRVAQPKDKENILKFLDAHFAKEEPCARALKLSPETSRGIFTTTVTRCLNFPFSTVVLQENDEIAACLLASVWNRTDPIDSADFNSSGMPENLKLFVQFINSAHSNFWKIAPPNVNSIIHREIGSVAPQFTRKGIATRMVTTNMTKTNLKKYNIGGVLSETSSLANQIVLQKAGFKCLKELPYSAIVDSKGNRVLRPDDGTTSLCLNFKPIEEYENLPE,not soluble
10,MQLSRQDEPLYLGLAETLRDELAGYQPGDYLPAEFQLAERFSVNRHTIRRAVDELVREGSVLRRQGKGTQVLERPLIYPMQADSAYSQSLSAQGVGVEAILLLRRECQASHEDALHLGLAEHAPVIELQTLRKLDGQAVSLIFHRYSAVYHELLADYQGGSVRQYLAECGLPLSRAQSLIGARLPSREEAGLLLMPRHMPALTVLTVSCDGAGQPVELSRSVSRSDRFQYQVATAIPTR,not soluble
11,MQLYVVLCFLVLLGLSAGQMTFTDQWTKKRATLHKQLPVVTPEEPICPSDRVQAVFEQLDQLQKAQQRLTEYLASCAYPVEVPQKAEKM,not soluble
12,MQMKRTAFFISDGTGITAETLGQSLLAQFENISFVKLTRPYIDTEEKARAMVQQINNAAESDGARPIIFDTIVNRDIRAVLAQSNGFMIDIFATFLSPLEQELSADSSYSVGKSHSIGHNSNYMDRIEAVNFALDNDDGARTHYYDKADLILVGVSRCGKTPTCLYMALQYGIRAANYPLTEEDMERLQLPNALKQYKHKLFGLTIDPDRLTAIRNERKPNSRYASFAQCEFEVREVESLFRRENIAYINSTHFSVEEISAKILVEKGVERRFKLEHHHHHH,not soluble
13,MQNAILLVSCPDRKGLVKEISSFIADNGGNIVSFDQHIDEQTKTFLARVEWSLEDFKIPREKIENEFKKVAQKFSMNFQISFSDYVKKVAIFVSKQEHCFYDLMHRFYSGELKGEVKLVISNHEKARKTAEFFGVPFYHIPKTKENKLEAEKRELELLKEYGVELVVLARYMQILSPKFVKEYENKIINIHHSFLPAFPGAKPYERAFGKGVKIIGATAHYVTEELDEGPIIEQDVVRVSHKDSLEDFIRKGKDIEKVVLARAVKWHLEDKILVYNGKTVVFE,soluble
14,MQNPIDSLLYVKISAEQAGKIFENLESSIPLPIQLSEPGQKEDFKAENIKPEMILAGMLTVFAYDRENPHITYYRKIFNLLRPDIRKEMTEAAIIKIKNNDFDMAEEILLSLEGLNPDDGITKLNLALLMEERSQFCEMRELFEDALSFNKRAEELYSELILFEPPLPGVFFNAAYFFIKQKNYIKAKSLLKTYLEIENDSSETAEFRKAKASELLKTISEQALDDELFQKAYKCIDLGEEEKAAESIKLFLRKNPKVWNAWFLLGWALRRMGRWEDARSSFLKTIELLENSEISDKEPLCDVYNELAICLMELELFDEAEKHLINALSLDSENIKIISNLGTLALKQGKQEEAEAFFRTVLEINPDDKIALNVLGKPRA,not soluble
15,MQPEEGTGWLLELLSEVQLQQYFLRLRDDLNVTRLSHFEYVKNEDLEKIGMGRPGQRRLWEAVKRRKALCKRKSWMSKVFSGKRLEAEFPPHHSQSTFRKTSPAPGGPAGEGPLQSLTCLIGEKDLRLLEKLGDGSFGVVRRGEWDAPSGKTVSVAVKCLKPDVLSQPEAMDDFIREVNAMHSLDHRNLIRLYGVVLTPPMKMVTELAPLGSLLDRLRKHQGHFLLGTLSRYAVQVAEGMGYLESKRFIHRDLAARNLLLATRDLVKIGDFGLMRALPQNDDHYVMQEHRKVPFAWCAPESLKTRTFSHASDTWMFGVTLWEMFTYGQEPWIGLNGSQILHKIDKEGERLPRPEDCPQDIYNVMVQCWAHKPEDRPTFVALRDFLLEAQPTDMRALQDFEEPDKLHIQMNDVITVIEGRAENYWWRGQNTRTLCVGPFPRNVVTSVAGLSAQDISQPLQNSFIHTGHGDSDPRHCWGFPDRIDELYLGNPMDPPDLLSVELSTSRPPQHLGGVKKPTYDPVSEDQDPLSSDFKRLGLRKPGLPRGLWLAKPSARVPGTKASRGSGAEVTLIDFGEEPVVPALRPCPPSLAQLAMDACSLLDETPPQSPTRALPRPLHPTPVVDWDARPLPPPPAYDDVAQDEDDFEICSINSTLVGAGVPAGPSQGQTNYAFVPEQARPPPPLEDNLFLPPQGGGKPPSSAQTAEIFQALQQECMRQLQAPGSPAPSPSPGGDDKPQVPPRVPIPPRPTRPHVQLSPAPPGEEETSQWPGPASPPRVPPREPLSPQGSRTPSPLVPPGSSPLPPRLSSSPGKTMPTTQSFASDPKYATPQVIQAPGAGGPCILPIVRDGKKVSSTHYYLLPERPSYLERYQRFLREAQSPEEPTPLPVPLLLPPPSTPAPAAPTATVRPMPQAALDPKANFSTNNSNPGARPPPPRATARLPQRGCPGDGPEAGRPADKIQMAMVHGVTTEECQAALQCHGWSVQRAAQYLKVEQLFGLGLRPRGECHKVLEMFDWNLEQAGCHLLGSWGPAHHKR,not soluble
16,MQPIPDVNQRIARISAHLHPPKSQMEESSALRRANCRAKGGAPGFKVAILGAAGGIGQPLAMLMKMNPLVSVLHLYDVVNAPGVTADISHMDTGAVVRGFLGQQQLEAALTGMDLIIVPAGVPRKPGMTRDDLFKINAGIVKTLCEGIAKCCPRAIVNLISNPVNSTVPIAAEVFKKAGTYDPKRLLGVTMLDVVRANTFVAEVLGLDPRDVDVPVVGGHAGVTILPLLSQVKPPSSFTQEEISYLTDRIQNGGTEVVEAKAGAGSATLSMAYAAVKFADACLRGLRGDAGVIECAFVSSQVTELPFFASKVRLGRNGIEEVYSLGPLNEYERIGLEKAKKELAGSIEKGVSFIRSHHHHHH,soluble
17,MQPLLEAQKKLLPDLLDVMQKRYQILHSISLMAPIGRRALAASLGMSERVLRSETEFLKGQNLLSADVSGMRLTEEGQALLHTLNDLMREALGLKELEAALQEQLGIPRVIVVAGDSDRSPWVKKEMGRACVACMKELLEPGDIVAVAGGTTMAAVAEMMTPDSKLRDVLFVPARGGLGEDVENQANTICAKMAEKAMGRYRLLHVPDQLSDEAYASLVEEPAVKEVLELIQSCRMVVHGIGEAVTMAKRRKTPPVEMEKIIARHAVAEAFGYYFNEYGDVVHKVKTVGIQLEHLPHVEHVIAVAGGASKAKAIRAYMKRAPHSLLVTDEGAAKAFVGE,not soluble
18,MQQNIQYTYSSDPRSGGNQNQQLHGISQFQQNSYQPTTYSNSNANNFHSSNSATFIPNSVTQTPQRRMGEEKSLVNMLDAYFIDSTTPSTSTSWNNQQPVQMSSIQQSVGSYNQQIPQLKVGDVDLQVEGMNVKLSSSPDKGEKDRVKKARQAEAARMRYHRLSNEEKRELNLKRTLAQKRKRQREKEMEELESILRETNDIQEDPDITEQLREKRMRAKWAEAARTRYARMTPEERRAHNTRRRMRQMQNAMSAIKACGMATGDPQKDDEAVRLHIKTQNAKKAEAARQRYHRMNDDEKRVYNQRRTEAFRRRRMEEEMLLAMPIGRINGEALDRAQQIVVRNAKRAEAARLRYQRMTPDQRKSYNQKRYTPKRRRNEMDDMISAGQMAVGSSGTITMGTGTPAKKDDMDALSSLERDVVKRTQHAQQILLRQRANQSSGTPRSVTPPPQAYIISNGQQQHQQLVGNQGNNGIGQHQVLHQGHMQQQQIQVSHQDFQQSSQSIPQNIYTSGMIIQNQGQQQQGQQQQQGQSQQILNNPYRT,not soluble
19,MQREKVDVLVIGAGPAGTVAASLVNKSGFKVKIVEKQKFPRFVIGESLLPRCMEHLDEAGFLDAVKAQGFQQKFGAKFVRGKEIADFNFSDQFSNGWNWTWQVPRGNFDKTLADEAARQGVDVEYEVGVTDIKFFGTDSVTTIEDINGNKREIEARFIIDASGYGRVIPRMFGLDKPSGFESRRTLFTHIKDVKRPVAAEMEGNRITAVVHKPKVWIWVIPFSNGNTSVGFVGEPSYFDEYTGTPEERMRAMIANEGHIAERFKSEEFLFEPRTIEGYAISASKLYGDGFVLTGNATEFLDPIFSSGATFAMESGSKGGKLAVQFLKGEEVNWEKDFVEHMMQGIDTFRSFVTGWYDGTLHAVFFAKNPDPDHKRMICSVLAGYVWDKNNPFVKKHNTILKTLAKVIQMGEEALEHHHHHH,soluble
